One assay concerns the target HLA-B*44:03. Briefly: IEDB peptide-MHC binding, purified MHC/competitive/radioactivity; filed as Kd, often an IC50 or EC50 that approximates it; ≥ and ≤ were set here for values at or beyond the usual limits of such assays.
For another assay, the target named is HLA-B*44:02. Described as above.
The target in another assay is HLA-B*40:01. Described as above. As to conditions: source organism: Dengue virus 1 Brazil/97-11/1997.
The target in assay [1] is HLA-A*02:01. As to the kind of experiment: IEDB peptide-MHC binding, purified MHC/competitive/fluorescence; filed as Kd, often an IC50 or EC50 that approximates it; ≥ and ≤ were set here for values at or beyond the usual limits of such assays.
The target in assay [2] is HLA-A*02:01. As to the kind of experiment: IEDB peptide-MHC binding, purified MHC/competitive/fluorescence; ≥ and ≤ were set here for values at or beyond the usual limits of such assays. As to conditions: source organism: Hepacivirus hominis.
For the next assay, the target named is HLA-B*08:01. Briefly: IEDB peptide-MHC binding, purified MHC/competitive/radioactivity; filed as Kd, often an IC50 or EC50 that approximates it; ≥ and ≤ were set here for values at or beyond the usual limits of such assays.
The next assay deals with HLA-A*02:03. The assay is described as above.
The next assay concerns the target HLA-B*53:01. Described as above.
The next assay addresses HLA-B*35:01. The assay is described as above.
Another assay addresses HLA-A*68:02. The assay is described as above.
For a further assay, the target named is HLA-A*24:02. Described as above.
A further assay addresses HLA-B*51:01. Described as above.
The next assay concerns the target HLA-A*01:01. The description is as above. As to conditions: source organism: Dengue virus 2 Jamaica/1409/1983.
Another assay has as its target HLA-A*26:01. Described as above. The settings on record: source organism: Dengue virus 2 Jamaica/1409/1983.
The next assay addresses HLA-A*30:02. Described as above.
Another assay concerns the target HLA-A*23:01. Described as above.
The target in another assay is HLA-A*29:02. Described as above. As to conditions: source organism: Mammarenavirus whitewaterense.
The target in another assay is HLA-B*58:01. Briefly: IEDB peptide-MHC binding, purified MHC/direct/fluorescence; filed as Kd, often an IC50 or EC50 that approximates it; ≥ and ≤ were set here for values at or beyond the usual limits of such assays. The settings on record: source organism: Salmonella enterica.
The target in another assay is HLA-B*57:01. The description is as above. As to conditions: source organism: Salmonella enterica.
Another assay has as its target HLA-A*02:06. As to the kind of experiment: IEDB peptide-MHC binding, purified MHC/competitive/radioactivity; filed as Kd, often an IC50 or EC50 that approximates it; ≥ and ≤ were set here for values at or beyond the usual limits of such assays. As to conditions: source organism: Dengue virus 4 Philippines/H241/1956.
Where [3] appears, read: source organism: Dengue virus 2 Jamaica/1409/1983.
Where [4] appears, read: source organism: Dengue virus 1 Brazil/97-11/1997.
[5] abbreviates: source organism: Dengue virus 3 Singapore/8120/1995.
[6] abbreviates: source organism: Dengue virus 4 Philippines/H241/1956.
Where [7] appears, read: source organism: Dengue virus 3 Martinique/1243/1999.
Where [8] appears, read: source organism: Vaccinia virus WR.
The mark [9] stands for this setting: source organism: Mammarenavirus whitewaterense.

Bounds are passed on as bounds.

Consider LEENVEVEIW, for which the equilibrium dissociation constant (Kd) in the assay with HLA-B*44:03 (setting [3]) amounted to 0.367 µM; with HLA-B*44:02 (setting [3]) it was 0.124 µM.

As to LEFFLMVLLI, the Kd in the assay with HLA-B*40:01 turned out to be 10.1 µM; with HLA-B*44:03 (setting [4]), 9.09 µM.

In the assay with HLA-A*02:01 [1] (source organism: Hepatitis C virus subtype 1b), LLCPAGHAV displayed a dissociation constant Kd of 0.0124 µM. In addition, the IC50 with HLA-A*02:01 [2] was 35.4 µM.

Regarding LLVTHYAII, the equilibrium dissociation constant (Kd) with HLA-B*08:01 (setting [5]) is 0.667 µM; with HLA-A*02:03 (setting [5]) it was 0.0392 µM.

In the case of LMKMKKKTWL, the Kd in the assay with HLA-B*08:01 (setting [6]) was 0.0241 µM.

For the sequence LPEIEDEVF, the Kd with HLA-B*53:01 (setting [4]) was 1.24 µM; with HLA-B*35:01 (setting [4]), 0.0881 µM.

Take LRTTTVSGKL: the dissociation constant (Kd) in the assay with HLA-B*08:01 (setting [7]) stood at 9.54 µM.

As to LTMKNKAWMV, the Kd in the assay with HLA-A*68:02 (setting [7]) came to 0.0167 µM.

As to LYSACFWWL, the dissociation constant (Kd) in the assay with HLA-A*24:02 (source organism: Homo sapiens) turned out to be 0.028 µM.

For MAISGDDCVV, the Kd with HLA-B*51:01 (setting [3]) amounted to 4.86 µM.

Consider MAMVLSIVS, for which the dissociation constant Kd with HLA-B*35:01 (source organism: Dengue virus 1 Singapore/S275/1990) was found to be 0.659 µM.

Take MASVEPHWI: the Kd with HLA-B*51:01 (setting [4]) was 1.79 µM; with HLA-B*53:01 (setting [4]) it was 1.4 µM.

For the sequence MAYMIGQTGI, the dissociation constant Kd with HLA-B*51:01 (setting [6]) is 0.0571 µM.

With MEVDRSEAK, in the assay with HLA-B*44:02 (setting [4]), the dissociation constant Kd was 7.94 µM.

As for MFISLFMIL, in the assay with HLA-B*08:01 (setting [8]), the Kd stood at 0.223 µM.

Consider MLVTPSMTM, for which, in the assay with HLA-B*35:01 (setting [7]), the Kd was determined as 3.84 µM.

MSYSMCTGKF: the values for the Kd with HLA-A*01:01, with HLA-A*26:01 and with HLA-A*30:02 (setting [3]) were 18 µM, 0.0794 µM and 1.1 µM, respectively.

As to MWLGARYLEF, the Kd with HLA-A*24:02 (setting [7]) worked out at 0.0977 µM; in the assay with HLA-A*23:01 (setting [7]), 0.00354 µM.

NLEKKITNV returned a Kd with HLA-A*02:01 [1] (source organism: Vaccinia virus WR 65-16) of 0.216 µM.

Regarding NVMKRINCF, in the assay with HLA-B*08:01 (setting [8]), the Kd was found to be 0.0198 µM.

Take NYCEGTTVVI: the dissociation constant Kd with HLA-A*24:02 (setting [7]) was 0.0434 µM; with HLA-A*23:01 (setting [7]) it was 0.101 µM.

On to PYIASRSQI, for which the Kd with HLA-A*24:02 (setting [9]) was 2.81 µM; with HLA-A*29:02, no less than 78.9 µM; in the assay with HLA-A*23:01 (setting [9]), 0.492 µM.

Turning to QERGKSLLF, in the assay with HLA-B*44:03 (setting [4]), the Kd is 0.117 µM.

In the case of QKQTQRSGVL, the Kd in the assay with HLA-B*08:01 (setting [7]) was determined as 5.8 µM.

For the sequence RNPAQEDDQY, the Kd with HLA-A*30:02 (setting [6]) was 15.9 µM.

Regarding RNPKNENDQY, in the assay with HLA-A*30:02 (setting [3]), the Kd worked out at 0.0207 µM.

As for RSRCRLHHL, the figures for the Kd with HLA-B*58:01 and in the assay with HLA-B*57:01 were 0.598 µM and 3.54 µM, respectively.

As for RTAGMIIMLI, the Kd with HLA-A*68:02 (source organism: Dengue virus 2 Peru/IQT2913/1996) worked out at 0.0616 µM.

As for RTTWALCESI, in the assay with HLA-A*68:02 (setting [4]), the Kd is 0.139 µM.

For the sequence RWGLLLALL, the Kd with HLA-A*24:02 (source organism: Homo sapiens) is 0.0045 µM.

Turning to SAKRITESI, the dissociation constant (Kd) with HLA-B*08:01 (setting [8]) is 0.119 µM.

Take SCKVKIVPL: the equilibrium dissociation constant (Kd) in the assay with HLA-B*08:01 (setting [8]) came out at 1.43 µM.

Turning to SEAVNDSRFW, the Kd came to 0.0414 µM in the assay with HLA-B*44:03 (setting [6]) and 0.0114 µM in the assay with HLA-B*44:02 (setting [6]).

On to SEIQLTDYG, for which the Kd with HLA-B*44:03 (setting [4]) turned out to be 0.441 µM.

Turning to SEKNETWKL, the equilibrium dissociation constant (Kd) with HLA-B*40:01 is 0.113 µM; with HLA-B*44:02 (setting [4]) it was 0.153 µM.

With SLIPRLVDF, in the assay with HLA-B*08:01 (setting [8]), the dissociation constant Kd was 0.0127 µM.

On to SRHQRLHDE, for which, in the assay with HLA-B*08:01 (setting [8]), the Kd is 0.453 µM.

Regarding SVYTTMFGGV, the results for the Kd in the assay with HLA-A*68:02 (setting [6]), in the assay with HLA-A*02:06 and with HLA-A*02:03 (setting [6]) were 0.00963 µM, 0.00196 µM and 0.00823 µM, respectively.

Regarding TATLILAGV, the Kd with HLA-A*68:02 (setting [7]) amounted to 0.00107 µM.

As to TPEGIIPSM, the equilibrium dissociation constant (Kd) is 0.252 µM with HLA-B*53:01 (setting [3]) and 0.00757 µM with HLA-B*35:01 (setting [3]).

In the case of TSMSFSCIAI, in the assay with HLA-A*68:02 (setting [7]), the Kd turned out to be 0.00123 µM.

On to TVFFVLMMLV, for which, in the assay with HLA-A*68:02 (setting [6]), the dissociation constant Kd turned out to be 0.0387 µM.

Turning to VHQIFGSAY, the Kd with HLA-A*30:02 (setting [7]) was 9.95 µM.

Turning to VLPFDIKKL, the dissociation constant Kd with HLA-A*02:01 [1] (setting [8]) was found to be 0.525 µM.

Turning to VNREGKIVGL, in the assay with HLA-B*08:01 (setting [4]), the Kd is no less than 35.6 µM.

Consider VPLLAIGCY, for which the dissociation constant Kd with HLA-B*35:01 (setting [3]) was found to be 0.168 µM.

Consider YVILTILTII, for which the figures for the Kd in the assay with HLA-B*53:01 (setting [6]) and in the assay with HLA-A*02:06 were 5.33 µM and 0.00238 µM, respectively.

In general, Kd refers to the equilibrium constant for the complex coming apart. What is called IC50 is the concentration at which inhibition is half-maximal. A low value points to greater potency.

The values above are taken from the Immune Epitope Database (IEDB).
